Assay results taken from patent publication US20250326865A1, “C-MET PROTEIN-BINDING PEPTIDE COMPLEX” (PeptiDream Inc., priority 2021, published 2025).
Positions of bridges follow the written chain, without caps; N, C: chain ends. Non-standard residues stand in square brackets, D forms with d. Residues, ends and D or L forms follow the SMILES beside them. Primed or numbered codes have the meaning given here. Chains are numbered I, II in the order given. No end group written: not given here. PEG12 = NCCOCCOCCOCCOCCOCCOCCOCCOCCOCCOCCOCCOCCC(=O)O; NMeF = CN[C@@H](Cc1ccccc1)C(=O)O; Ahp(2) = CCCCC[C@H](N)C(=O)O; NMeC = CN[C@@H](CS)C(=O)O; Ahp′ = not defined here

Target: T1, c-Met (Homo sapiens, UniProt P08581)
T1 construct: endogenous in cells; host or cells: A431 (human)
Assay: Phospho-c-Met AlphaLISA assay (c-Met agonist activity) in A431 cells
Format: cell-based
Details: c-Met phosphorylation (Tyr1234/1235) in A431 cells, 15 minutes of stimulation; maximum signal induced by HGF = 100%
Experimental: To evaluate the activation potency (c-Met agonist activity) of c-Met of the peptide complex of the present invention, the phosphorylation of c-Met was verified. Human A431 cells were cultured in DMEM high glucose, GlutaMAX (registered trademark) Supplement, pyruvate (Thermo Fisher Scientific), containing 10% FBS (Gibco). After cells were detached using Accutase (Innovative cell technologies), they were seeded into a 96-well plate at 10000 cells per well and cultured overnight. The next day, for starvation, the culture medium was changed to DMEM high glucose, GlutaMAX (registered trademark) Supplement, pyruvate (Thermo Fisher Scientific), containing 0.1% BSA (Sigma-Aldrich), and the cells were cultured overnight. Then, the peptide complex synthesized in Example 3 or Recombinant Human HGF Protein (R&D systems) as a control was added, and after 15 minutes of stimulation, cells were lysed in a Lysis Buffer provided in the AlphaLISA (registered trademark) SureFire (registered trademark) Ultra™ Phospho-c-Met (Tyr1234/1235) kit (PerkinElmer). The assay was performed according to the kit protocol, and a SpectraMax (registered trademark) Paradigm (registered trademark) multimode microplate reader (Molecular Devices, LLC.) was used for signal detection. […] In the same manner, the C50 value was calculated by GraphPad Prism as the concentration of peptide showing 50% activity of the signal induced by HGF. […] Further, for a complex (GFs_c-Met-00014336-PEG13 dimer; complex no. 49 in Table 4) of a peptide (SEQ ID NO: 34) and a linker (SEQ ID NO: 37), a graph of c-Met agonist activity is shown in FIG. 1.

T1 sequence (P08581 25-1390): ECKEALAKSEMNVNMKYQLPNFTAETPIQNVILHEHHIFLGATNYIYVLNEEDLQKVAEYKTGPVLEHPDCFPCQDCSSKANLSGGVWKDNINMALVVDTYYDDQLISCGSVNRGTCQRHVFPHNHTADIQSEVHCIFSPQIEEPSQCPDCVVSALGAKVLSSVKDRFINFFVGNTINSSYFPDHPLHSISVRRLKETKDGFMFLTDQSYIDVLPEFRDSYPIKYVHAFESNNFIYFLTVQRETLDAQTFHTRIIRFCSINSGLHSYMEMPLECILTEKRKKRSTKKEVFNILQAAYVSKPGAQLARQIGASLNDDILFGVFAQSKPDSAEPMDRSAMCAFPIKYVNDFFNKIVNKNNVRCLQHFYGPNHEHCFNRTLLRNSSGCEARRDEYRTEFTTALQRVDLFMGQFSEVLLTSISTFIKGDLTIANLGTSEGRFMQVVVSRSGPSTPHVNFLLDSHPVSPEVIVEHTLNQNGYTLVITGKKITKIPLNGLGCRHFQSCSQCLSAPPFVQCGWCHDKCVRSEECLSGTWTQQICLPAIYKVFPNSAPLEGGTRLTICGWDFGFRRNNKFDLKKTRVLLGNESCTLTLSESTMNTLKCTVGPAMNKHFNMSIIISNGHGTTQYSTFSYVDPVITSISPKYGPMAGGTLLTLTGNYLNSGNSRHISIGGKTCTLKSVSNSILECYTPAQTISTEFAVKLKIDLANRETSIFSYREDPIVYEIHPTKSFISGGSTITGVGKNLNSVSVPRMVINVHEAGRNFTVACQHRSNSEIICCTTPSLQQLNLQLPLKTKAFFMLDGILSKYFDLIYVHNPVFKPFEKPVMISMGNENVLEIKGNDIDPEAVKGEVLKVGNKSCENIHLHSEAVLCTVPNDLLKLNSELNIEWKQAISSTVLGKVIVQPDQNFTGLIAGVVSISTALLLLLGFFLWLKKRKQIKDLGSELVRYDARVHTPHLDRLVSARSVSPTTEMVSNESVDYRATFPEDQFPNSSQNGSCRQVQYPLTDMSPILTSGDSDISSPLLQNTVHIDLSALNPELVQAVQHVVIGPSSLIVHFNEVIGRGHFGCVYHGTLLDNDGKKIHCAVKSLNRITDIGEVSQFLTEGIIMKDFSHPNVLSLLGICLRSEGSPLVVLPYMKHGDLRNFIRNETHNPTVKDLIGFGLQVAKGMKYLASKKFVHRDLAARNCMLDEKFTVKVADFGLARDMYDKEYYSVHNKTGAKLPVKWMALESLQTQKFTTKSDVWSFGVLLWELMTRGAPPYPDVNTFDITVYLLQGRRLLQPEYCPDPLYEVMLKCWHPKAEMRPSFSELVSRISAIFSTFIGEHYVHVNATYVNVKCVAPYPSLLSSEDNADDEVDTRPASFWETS

Molecule | C-Met Agonist Activity (2 or 1)
5 ([NMeF]WYVS[NMeF]DDD[Ahp′]PRWS[NMeC]; not fully specified; reading uncertain) [Peptide 5] | 2 (those showing more than 50% activation were described as 2)
16 ({CH2CO}-[NMeF]VAVS[NMeF]DDD[Ahp′]PRWS[NMeC]; thioether N-15 (inferred); not fully specified; reading uncertain; also: conjugated moiety via linker) [Peptide 16] | 1 (those showing less than 50% activation as 1)
3 ({CH2CO}-FVYVS[NMeF]DDD[Ahp′]PRWS[NMeC]; thioether N-15 (inferred); not fully specified; reading uncertain; also: conjugated moiety via linker) [Peptide 3] | 1 (those showing less than 50% activation as 1)
7 ({CH2CO}-[NMeF]VYVS[NMeF]DVD[Ahp′]PRWS[NMeC]; thioether N-15 (inferred); not fully specified; reading uncertain; also: conjugated moiety via linker) [Peptide 7] | 2 (those showing more than 50% activation were described as 2)
1 ({CH2CO}-[NMeF]VYVS[NMeF]DDD[Ahp′]PRWS[NMeC]; thioether N-15 (inferred); not fully specified; reading uncertain; also: conjugated moiety via linker) [Peptide 1] | 2 (those showing more than 50% activation were described as 2)
9 ([NMeF]VYVS[NMeF]DDDSPRWS[NMeC]; also: conjugated moiety via linker, site not given here) [Peptide 9] | 2 (those showing more than 50% activation were described as 2)

Same assay, conditions: concentration of peptide showing 50% activity of the signal induced by HGF; A431 cells, 15 minutes of stimulation; read-out: C-Met Agonist Activity (C50; nM)

EC50 | Molecule
2.37 nM | CCCCC[C@@H]1NC(=O)[C@H](CC(=O)O)NC(=O)[C@H](CC(=O)O)NC(=O)[C@H](CC(=O)O)NC(=O)[C@H](Cc2ccccc2)N(C)C(=O)[C@H](CO)NC(=O)[C@H](C(C)C)NC(=O)[C@H](Cc2ccc(O)cc2)NC(=O)[C@H](C(C)C)NC(=O)[C@H](Cc2ccccc2)N(C)C(=O)CSC[C@@H](C(=O)NCCOCCOCCOCCOCCOCCOCCOCCOCCOCCOCCOCCOCCC(=O)NCCCC[C@H](NC(=O)CCOCCOCCOCCOCCOCCOCCOCCOCCOCCOCCOCCOCCNC(=O)[C@@H]2CSCC(=O)N(C)[C@@H](Cc3ccccc3)C(=O)N[C@@H](C(C)C)C(=O)N[C@@H](Cc3ccc(O)cc3)C(=O)N[C@@H](C(C)C)C(=O)N[C@@H](CO)C(=O)N(C)[C@@H](Cc3ccccc3)C(=O)N[C@@H](CC(=O)O)C(=O)N[C@@H](CC(=O)O)C(=O)N[C@@H](CC(=O)O)C(=O)N[C@@H](CCCCC)C(=O)N3CCC[C@H]3C(=O)N[C@@H](CCCNC(=N)N)C(=O)N[C@@H](Cc3c[nH]c4ccccc34)C(=O)N[C@@H](C)C(=O)N2C)C(N)=O)N(C)C(=O)[C@H](C)NC(=O)[C@H](Cc2c[nH]c3ccccc23)NC(=O)[C@H](CCCNC(=N)N)NC(=O)[C@@H]2CCCN2C1=O [Peptide 22] (I: {CH2CO}-[NMeF]VYVS[NMeF]DDD[Ahp(2)]PRWA[NMeC][PEG12]K-NH2 / II: {CH2CO}-[NMeF]VYVS[NMeF]DDD[Ahp(2)]PRWA[NMeC][PEG12]; amide I:17-II:C; thioether I:N-I:15, II:N-II:15)
